# Tests used:
# [1] = target: T1, atf-5 (T04C10.4) (Caenorhabditis elegans) (UniProt Q22156)
# T1 sequence: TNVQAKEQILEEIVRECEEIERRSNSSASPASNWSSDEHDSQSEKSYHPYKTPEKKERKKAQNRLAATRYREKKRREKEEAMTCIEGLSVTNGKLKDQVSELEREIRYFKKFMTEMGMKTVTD
# [2] = target: atf-7 (C07G2.2) (Caenorhabditis elegans) (UniProt Q86MD3)
# [3] = target: T2, xbp-1 (R74.3) (Caenorhabditis elegans) (UniProt G5EE07)
# T2 sequence: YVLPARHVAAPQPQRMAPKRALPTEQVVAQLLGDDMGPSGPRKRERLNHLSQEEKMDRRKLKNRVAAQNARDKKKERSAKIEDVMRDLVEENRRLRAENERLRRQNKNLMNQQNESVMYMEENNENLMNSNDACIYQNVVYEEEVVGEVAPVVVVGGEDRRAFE
# [4] = target: T3, zip-3 (W07G1.3) (Caenorhabditis elegans) (UniProt Q9XUK2)
# T3 sequence: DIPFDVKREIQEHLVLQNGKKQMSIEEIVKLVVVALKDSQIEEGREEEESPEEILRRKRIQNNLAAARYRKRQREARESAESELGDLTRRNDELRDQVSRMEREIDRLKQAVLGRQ
# [5] = target: T4, ref-2 (C47C12.3) (Caenorhabditis elegans) (UniProt Q7JNM3)
# T4 sequence: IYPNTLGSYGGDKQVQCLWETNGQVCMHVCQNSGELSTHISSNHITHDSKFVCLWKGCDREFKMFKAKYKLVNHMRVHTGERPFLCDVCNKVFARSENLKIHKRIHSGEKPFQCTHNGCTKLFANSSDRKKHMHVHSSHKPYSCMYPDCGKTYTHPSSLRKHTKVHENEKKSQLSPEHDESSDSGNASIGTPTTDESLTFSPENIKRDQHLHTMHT
# [6] = target: T5, W08E12.1 (W08E12.1) (Caenorhabditis elegans) (UniProt Q9N5A8)
# T5 sequence: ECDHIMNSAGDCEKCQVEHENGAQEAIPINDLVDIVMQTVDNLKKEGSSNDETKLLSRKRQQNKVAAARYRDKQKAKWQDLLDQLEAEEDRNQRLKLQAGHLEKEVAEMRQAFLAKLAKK
# [7] = target: T6, Y51H4A.4 (Y51H4A.4) (Caenorhabditis elegans) (UniProt Q9NAE4)
# T6 sequence: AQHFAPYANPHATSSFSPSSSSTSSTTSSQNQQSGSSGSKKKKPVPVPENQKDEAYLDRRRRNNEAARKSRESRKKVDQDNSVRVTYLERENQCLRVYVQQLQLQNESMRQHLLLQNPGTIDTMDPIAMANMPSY
# [8] = target: T7, atf-6 (F45E6.2) (Caenorhabditis elegans) (UniProt Q20435)
# T7 sequence: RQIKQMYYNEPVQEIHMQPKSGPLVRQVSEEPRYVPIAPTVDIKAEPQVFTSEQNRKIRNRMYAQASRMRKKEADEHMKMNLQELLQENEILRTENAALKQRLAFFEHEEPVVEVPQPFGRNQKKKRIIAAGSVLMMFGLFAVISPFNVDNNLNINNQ
# [9] = target: T8, D1005.3 (D1005.3) (Caenorhabditis elegans) (UniProt Q18909)
# T8 sequence: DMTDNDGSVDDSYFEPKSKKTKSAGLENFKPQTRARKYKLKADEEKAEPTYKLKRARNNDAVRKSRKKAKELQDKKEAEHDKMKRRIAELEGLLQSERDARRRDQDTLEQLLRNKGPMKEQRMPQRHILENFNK
# [10] = target: T9, T27F2.4 (T27F2.4) (Caenorhabditis elegans) (UniProt Q22835)
# T9 sequence: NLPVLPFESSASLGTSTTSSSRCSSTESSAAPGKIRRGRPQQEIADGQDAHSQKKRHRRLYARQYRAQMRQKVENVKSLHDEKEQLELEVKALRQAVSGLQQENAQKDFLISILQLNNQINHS
# [11] = target: T10, F17A9.3 (F17A9.3) (Caenorhabditis elegans) (UniProt O16213)
# T10 sequence: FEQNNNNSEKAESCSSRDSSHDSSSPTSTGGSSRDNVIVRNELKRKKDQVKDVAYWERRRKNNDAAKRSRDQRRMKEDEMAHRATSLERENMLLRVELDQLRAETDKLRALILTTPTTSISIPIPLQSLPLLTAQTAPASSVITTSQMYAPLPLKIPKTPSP
# [12] = target: T11, T07C12.11 (T07C12.11) (Caenorhabditis elegans) (UniProt G5EGG9)
# T11 sequence: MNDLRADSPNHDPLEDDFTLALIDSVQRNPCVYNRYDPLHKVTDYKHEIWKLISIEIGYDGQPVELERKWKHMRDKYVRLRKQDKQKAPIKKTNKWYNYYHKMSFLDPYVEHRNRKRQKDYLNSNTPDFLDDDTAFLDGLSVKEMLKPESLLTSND
# [13] = target: T12, atf-2 (K08F8.2) (Caenorhabditis elegans) (UniProt Q21361)
# T12 sequence: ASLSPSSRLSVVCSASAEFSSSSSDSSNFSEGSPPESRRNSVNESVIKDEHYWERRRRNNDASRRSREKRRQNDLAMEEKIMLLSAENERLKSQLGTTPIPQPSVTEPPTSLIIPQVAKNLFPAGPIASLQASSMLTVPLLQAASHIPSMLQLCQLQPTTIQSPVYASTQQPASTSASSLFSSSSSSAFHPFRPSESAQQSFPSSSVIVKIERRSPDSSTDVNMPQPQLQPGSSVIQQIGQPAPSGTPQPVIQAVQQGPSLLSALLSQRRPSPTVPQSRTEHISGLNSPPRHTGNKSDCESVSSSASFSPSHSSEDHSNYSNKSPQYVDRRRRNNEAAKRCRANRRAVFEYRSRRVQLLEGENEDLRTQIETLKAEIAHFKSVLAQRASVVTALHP
# [14] = target: T13, F10B5.3 (F10B5.3) (Caenorhabditis elegans) (UniProt Q09534)
# T13 sequence: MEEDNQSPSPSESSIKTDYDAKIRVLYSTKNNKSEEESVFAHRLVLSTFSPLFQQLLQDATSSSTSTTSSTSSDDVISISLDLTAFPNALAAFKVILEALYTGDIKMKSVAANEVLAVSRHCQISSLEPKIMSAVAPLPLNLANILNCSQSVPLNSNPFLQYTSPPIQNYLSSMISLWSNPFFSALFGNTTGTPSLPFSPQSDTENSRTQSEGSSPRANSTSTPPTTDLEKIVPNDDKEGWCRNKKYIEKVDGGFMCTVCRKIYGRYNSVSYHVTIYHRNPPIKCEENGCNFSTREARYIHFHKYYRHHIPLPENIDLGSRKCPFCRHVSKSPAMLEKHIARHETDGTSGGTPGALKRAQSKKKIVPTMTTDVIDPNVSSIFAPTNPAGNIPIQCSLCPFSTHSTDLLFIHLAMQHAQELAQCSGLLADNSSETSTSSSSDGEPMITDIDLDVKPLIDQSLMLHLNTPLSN
# [15] = target: T14, hsf-1 (Y53C10A.12) (Caenorhabditis elegans) (UniProt G5EFT5)
# T14 sequence: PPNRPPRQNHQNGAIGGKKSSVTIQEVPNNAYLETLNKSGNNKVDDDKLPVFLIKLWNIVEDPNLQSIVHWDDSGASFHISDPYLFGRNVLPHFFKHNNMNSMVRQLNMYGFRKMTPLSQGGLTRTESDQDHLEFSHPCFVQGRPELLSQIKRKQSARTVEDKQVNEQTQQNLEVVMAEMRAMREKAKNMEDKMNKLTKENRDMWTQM
# atf-7 (C07G2.2) (Caenorhabditis elegans), sequence (Q86MD3 339-508): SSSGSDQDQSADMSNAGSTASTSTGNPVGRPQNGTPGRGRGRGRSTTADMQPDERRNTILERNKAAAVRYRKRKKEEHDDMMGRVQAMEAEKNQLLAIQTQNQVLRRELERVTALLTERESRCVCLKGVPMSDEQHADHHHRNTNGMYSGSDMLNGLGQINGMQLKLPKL
sequence,measurement,setting,value
ACGTCATC (double strand) [8-mer ACGTCATC],binding signal (PBM E-score (-0.5 to 0.5)),[1],0.49
same,binding signal (PBM E-score (-0.5 to 0.5)),[2],0.499
same,binding signal (PBM E-score (-0.5 to 0.5)),[3],0.471
same,binding signal (PBM E-score (-0.5 to 0.5)),[4],0.493
ATGACGTG (double strand) [8-mer ATGACGTG],binding signal (PBM E-score (-0.5 to 0.5)),[1],0.485
same,binding signal (PBM E-score (-0.5 to 0.5)),[2],0.499
same,binding signal (PBM E-score (-0.5 to 0.5)),[3],0.451
same,binding signal (PBM E-score (-0.5 to 0.5)),[4],0.494
CAGCGGGA (double strand) [8-mer CAGCGGGA],binding signal (PBM E-score (-0.5 to 0.5)),[5],0.483
TGACGTAA (double strand) [8-mer TGACGTAA],binding signal (PBM E-score (-0.5 to 0.5)),[6],0.47
same,binding signal (PBM E-score (-0.5 to 0.5)),[7],0.454
same,binding signal (PBM E-score (-0.5 to 0.5)),[1],0.49
same,binding signal (PBM E-score (-0.5 to 0.5)),[8],0.459
same,binding signal (PBM E-score (-0.5 to 0.5)),[2],0.495
TGACGTCA (double strand) [8-mer TGACGTCA],binding signal (PBM E-score (-0.5 to 0.5)),[6],0.5
same,binding signal (PBM E-score (-0.5 to 0.5)),[1],0.5
same,binding signal (PBM E-score (-0.5 to 0.5)),[2],0.5
same,binding signal (PBM E-score (-0.5 to 0.5)),[4],0.5
TTACGAAA (double strand) [8-mer TTACGAAA],binding signal (PBM E-score (-0.5 to 0.5)),[9],0.464
same,binding signal (PBM E-score (-0.5 to 0.5)),[10],0.463
TTACGTAA (double strand) [8-mer TTACGTAA],binding signal (PBM E-score (-0.5 to 0.5)),[11],0.498
same,binding signal (PBM E-score (-0.5 to 0.5)),[12],0.496
same,binding signal (PBM E-score (-0.5 to 0.5)),[7],0.498
same,binding signal (PBM E-score (-0.5 to 0.5)),[13],0.478
TTCCAGAA (double strand) [8-mer TTCCAGAA],binding signal (PBM E-score (-0.5 to 0.5)),[14],0.491
same,binding signal (PBM E-score (-0.5 to 0.5)),[15],0.489
TTCTAGAA (double strand) [8-mer TTCTAGAA],binding signal (PBM E-score (-0.5 to 0.5)),[14],0.477
same,binding signal (PBM E-score (-0.5 to 0.5)),[15],0.498
